According to patent US20240245796A1 (PROFOUNDBIO US, published 2024):
Where a chain is given by its changes, count along the chain named.

B1: F40 (antibody, V domains shown)
VH: EVQLLESGGGVVQPGRSLRLSCAASGFTFSSYAMHWVRQAPGKGLEWVAVISYDGSNKYYADSVKGRFIISRDNSKNTVYLQMNSLRAEDTAVYYCARPTYVFTYTGSSFDYWGQGTQVTVSS
VL: DIQVTQSPSSLSASLGDTVSITCRASRGLTDSVAWYQQKPGQAPKLLIYAASTLQSGVPSRFGGSGSGSYFTLTITSLQPEDVATYYCQNYKSAPWTFGQGTKVEIK
notes: Tested as full-length IgG with an IgG1 Fc from HEK293, as supernatant or purified; also called clone F40; anti-FOLR1 antibody F40
B2: F1 (antibody, V domains shown)
VH: B1 VH with A33G, I69T, V79L, T100R, Y101A, V102Y, F103Y, T104G, Y105A, T106Y
VL: EIVMTQSPSSVSASVGDRVAITCRASQGISSWLAWYQQKPGKAPKLLIYAASSLQSGVPSRFSGSGSGTDFTLTISSLQPEDFATYYCQQSYSTPLTFGGGTKVDIK
notes: also called clone F1; anti-FOLR1 antibody F1
B3: F112 (antibody, V domains shown)
VH: EVQLLESGGGVVQPGRSLRLSCAASGFTFSSYGMHWVRQAPGKGLEWVAVISYDGSNKYYADSVKGRFTISRHNSKNTLYLQMNSLRAEDTAVYYCARPRAYYGAYGSSFDYWGQGTQVTVSS
VL: B2 VL
notes: Tested as full-length IgG with an IgG1 Fc from HEK293, as supernatant or purified; also called clone F112; anti-FOLR1 antibody F112
B4: F48 (antibody, V domains shown)
VH: B3 VH with H73D, Q82H
VL: B2 VL
notes: Tested as full-length IgG with an IgG1 Fc from HEK293, as supernatant or purified; also called clone F48; anti-FOLR1 antibody F48
B5: F100 (antibody, V domains shown)
VH: B3 VH with H73P
VL: B2 VL
notes: Tested as full-length IgG with an IgG1 Fc from HEK293, as supernatant or purified; also called clone F100; anti-FOLR1 antibody F100
B6: F26 (antibody, V domains shown)
VH: B3 VH with P14R, H73D, Q82P
VL: B2 VL
notes: Tested as full-length IgG with an IgG1 Fc from HEK293, as supernatant or purified; also called clone F26; anti-FOLR1 antibody F26
B7: F138 (antibody, V domains shown)
VH: B3 VH with R72T
VL: B2 VL
notes: Tested as full-length IgG with an IgG1 Fc, HEK293 supernatant; also called clone F138; anti-FOLR1 antibody F138
B8: F123 (antibody, V domains shown)
VH: B3 VH with G15E, H73A
VL: B2 VL
notes: Tested as full-length IgG with an IgG1 Fc from HEK293, as supernatant or purified; also called clone F123; anti-FOLR1 antibody F123
B9: F8 (antibody, V domains shown)
VH: B3 VH with P14H, H73D
VL: B2 VL
notes: Tested as full-length IgG with an IgG1 Fc from HEK293, as supernatant or purified; also called clone F8; anti-FOLR1 antibody F8

Target: T1, cynomolgus FOLR1 protein, His Tag (ACRO F01-C52H8) (cynomolgus, UniProt A0A2K5U044 25-233)
T1 construct: Bought protein coated on ELISA plates; also called Cynomolgus/Rhesus macaque FOLR1, Protein, His Tag; not shown: His tag
Assay: ELISA, coated cyno FOLR1-His, supernatant 1x

T1 sequence (A0A2K5U044 entry or part of it): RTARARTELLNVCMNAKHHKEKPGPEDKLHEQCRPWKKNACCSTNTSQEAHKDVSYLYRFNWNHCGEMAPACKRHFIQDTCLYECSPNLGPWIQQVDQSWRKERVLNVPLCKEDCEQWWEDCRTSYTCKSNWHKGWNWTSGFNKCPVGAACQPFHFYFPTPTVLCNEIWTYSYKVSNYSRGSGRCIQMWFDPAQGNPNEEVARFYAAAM

**Q.** For B1, which OD450 is on record?
**A.** 1.35 OD450

**Q.** With B2 as the binder, how does the OD450 read?
**A.** 1.38 OD450

**Q.** How did the OD450 turn out when B3 was run?
**A.** 1.26 OD450

**Q.** Which OD450 does the source give for B4 here?
**A.** 1.15 OD450

**Q.** With B5 as the binder, how does the OD450 read?
**A.** 1.16 OD450

**Q.** With B6 as the binder, how does the OD450 read?
**A.** 1.24 OD450

**Q.** B7 was tested. Which OD450 did it give?
**A.** 1.14 OD450

**Q.** With B8 as the binder, how does the OD450 read?
**A.** 1.36 OD450

**Q.** Which OD450 does the source give for B9 here?
**A.** 0.896 OD450

Target: T2, human FOLR1 protein, His Tag (ACRO FO1-H52H1) (human, UniProt P15328 25-233)
T2 construct: Bought protein coated on ELISA plates; not shown: His tag
Assay: ratio of OD450 on hFOLR1 to OD450 on anti-human IgG Fc

T2 sequence (P15328 25-233 limits assumed): as the sequence (A0A2K5U044 entry or part of it) above, with T2I, R4W, K37R, P146A, Y171H counted along it

**Q.** With B1 as the binder, how does the “Target binding/IgG level” value read?
**A.** 1.02

**Q.** B2 was tested. Which “Target binding/IgG level” value did it give?
**A.** 1.08

**Q.** For B3, which “Target binding/IgG level” value is on record?
**A.** 1.12

**Q.** For B4, which “Target binding/IgG level” value is on record?
**A.** 1.12

**Q.** For B5, which “Target binding/IgG level” value is on record?
**A.** 1.48

**Q.** Which “Target binding/IgG level” value does the source give for B6 here?
**A.** 1.21

**Q.** For B7, which “Target binding/IgG level” value is on record?
**A.** 1.2

**Q.** B8 was tested. Which “Target binding/IgG level” value did it give?
**A.** 1.06

**Q.** For B9, which “Target binding/IgG level” value is on record?
**A.** 1.12

Target: T1, cynomolgus FOLR1 protein, His Tag (ACRO …)
Assay: ELISA, coated cyno FOLR1-His, supernatant 5x

**Q.** For B1, which OD450 is on record?
**A.** 1.11 OD450

**Q.** B2 was tested. Which OD450 did it give?
**A.** 1.26 OD450

**Q.** With B3 as the binder, how does the OD450 read?
**A.** 1.21 OD450

**Q.** How did the OD450 turn out when B4 was run?
**A.** 1.04 OD450

**Q.** How did the OD450 turn out when B5 was run?
**A.** 1.03 OD450

**Q.** For B6, which OD450 is on record?
**A.** 1.21 OD450

**Q.** How did the OD450 turn out when B7 was run?
**A.** 1.14 OD450

**Q.** Which OD450 does the source give for B8 here?
**A.** 1.3 OD450

**Q.** Which OD450 does the source give for B9 here?
**A.** 1.28 OD450

Target: T2, human FOLR1 protein, His Tag (ACRO …)
Assay: ELISA, coated hFOLR1-His, HEK293 supernatant

**Q.** Which OD450 does the source give for B1 here?
**A.** 2.39 OD450

**Q.** Which OD450 does the source give for B2 here?
**A.** 2.43 OD450

**Q.** For B3, which OD450 is on record?
**A.** 2.35 OD450

**Q.** B4 was tested. Which OD450 did it give?
**A.** 2.54 OD450

**Q.** For B5, which OD450 is on record?
**A.** 2.3 OD450

**Q.** With B6 as the binder, how does the OD450 read?
**A.** 2.43 OD450

**Q.** B7 was tested. Which OD450 did it give?
**A.** 2.41 OD450

**Q.** Which OD450 does the source give for B8 here?
**A.** 2.32 OD450

**Q.** B9 was tested. Which OD450 did it give?
**A.** 2.45 OD450

Target: T2, human FOLR1 protein, His Tag (ACRO …)
Assay: ELISA, coated hFOLR1-His, supernatant 25x

**Q.** With B1 as the binder, how does the OD450 read?
**A.** 0.163 OD450

**Q.** Which OD450 does the source give for B2 here?
**A.** 1.18 OD450

**Q.** Which OD450 does the source give for B3 here?
**A.** 1.17 OD450

**Q.** For B4, which OD450 is on record?
**A.** 1.29 OD450

**Q.** B5 was tested. Which OD450 did it give?
**A.** 1.18 OD450

**Q.** With B6 as the binder, how does the OD450 read?
**A.** 1.48 OD450

**Q.** For B7, which OD450 is on record?
**A.** 1.83 OD450

**Q.** With B8 as the binder, how does the OD450 read?
**A.** 1.33 OD450

**Q.** B9 was tested. Which OD450 did it give?
**A.** 1.31 OD450

Target: T2, human FOLR1 protein, His Tag (ACRO …)
Assay: ELISA, coated hFOLR1-His, supernatant 5x

**Q.** For B1, which OD450 is on record?
**A.** 0.382 OD450

**Q.** B2 was tested. Which OD450 did it give?
**A.** 1.45 OD450

**Q.** For B3, which OD450 is on record?
**A.** 1.42 OD450

**Q.** For B4, which OD450 is on record?
**A.** 1.59 OD450

**Q.** For B5, which OD450 is on record?
**A.** 1.53 OD450

**Q.** B6 was tested. Which OD450 did it give?
**A.** 1.51 OD450

**Q.** With B7 as the binder, how does the OD450 read?
**A.** 1.69 OD450

**Q.** With B8 as the binder, how does the OD450 read?
**A.** 1.47 OD450

**Q.** How did the OD450 turn out when B9 was run?
**A.** 1.65 OD450

Target: T2, human FOLR1 protein, His Tag (ACRO …)
Assay: ELISA, coated hFOLR1-His, supernatant 1x

**Q.** Which OD450 does the source give for B1 here?
**A.** 0.811 OD450

**Q.** With B2 as the binder, how does the OD450 read?
**A.** 1.66 OD450

**Q.** With B3 as the binder, how does the OD450 read?
**A.** 1.56 OD450

**Q.** For B4, which OD450 is on record?
**A.** 1.56 OD450

**Q.** With B5 as the binder, how does the OD450 read?
**A.** 1.61 OD450

**Q.** B6 was tested. Which OD450 did it give?
**A.** 1.64 OD450

**Q.** Which OD450 does the source give for B7 here?
**A.** 1.64 OD450

**Q.** For B8, which OD450 is on record?
**A.** 1.72 OD450

**Q.** With B9 as the binder, how does the OD450 read?
**A.** 1.67 OD450

Target: T1, cynomolgus FOLR1 protein, His Tag (ACRO …)
Assay: ELISA, coated cyno FOLR1-His, supernatant 25x

**Q.** With B1 as the binder, how does the OD450 read?
**A.** 0.924 OD450

**Q.** With B2 as the binder, how does the OD450 read?
**A.** 0.994 OD450

**Q.** Which OD450 does the source give for B3 here?
**A.** 0.933 OD450

**Q.** For B4, which OD450 is on record?
**A.** 0.908 OD450

**Q.** B5 was tested. Which OD450 did it give?
**A.** 0.875 OD450

**Q.** With B6 as the binder, how does the OD450 read?
**A.** 1.02 OD450

**Q.** For B7, which OD450 is on record?
**A.** 1.17 OD450

**Q.** B8 was tested. Which OD450 did it give?
**A.** 1.07 OD450

**Q.** Which OD450 does the source give for B9 here?
**A.** 1.06 OD450
